The text below walks through data of PMC6393240, “DNA replication initiation in Bacillus subtilis: structural and functional characterization of the essential DnaA–DnaD interaction” (Nucleic Acids Research, 2018).

Numbering of substitutions follows the chain as printed. Numbers in names are those of the source.

First the molecules themselves.
B1: Truncated DnaD DDBH2 domain (residues 129–196) (domain or fragment, Bacillus subtilis, UniProt P39787 129-196, looked up)
chain: LYTIFEEEFARPLSPLECETLAIWQDQDQHDAQLIKHALKEAVLSGKLSFRYIDRILFEWKKNGLKTV
notes: DnaD, Bacillus subtilis, DDBH2 domain truncated at the C-terminus, residues 129-196; Made from the DDBH2 (129-232) construct by Q5 site directed mutagenesis; A residual N-terminal Gly-Ser-His remains after thrombin cleavage; also called DnaD DDBH2 domain truncation; truncated DDBH2; not shown: His tag, N-terminal, cleaved
B2: DnaD, full length, Bacillus subtilis (natural protein)
chain: MKKQQFIDMQEQGTSTIPNLLLTHYKQLGLNETELILLLKIKMHLEKGSYFPTPNQLQEGMSISVEECTNRLRMFIQKGFLFIEECEDQNGIKFEKYSLQPLWGKLYEYIQLAQNQTQERKAEGEQKSLYTIFEEEFARPLSPLECETLAIWQDQDQHDAQLIKHALKEAVLSGKLSFRYIDRILFEWKKNGLKTVEQAKIHSQKFRRVQAKQNEPQKEYKRQVPFYNWLEQ
B3: DnaA domain I (residues 1–81) of Bacillus subtilis DnaA (domain or fragment, UniProt P05648 1-81, looked up)
chain: MENILDLWNQALAQIEKKLSKPSFETWMKSTKAHSLQGDTLTITAPNEFARDWLESRYLHLIADTIYELTGEELSIKFVIP
notes: DnaA, Bacillus subtilis, domain I, residues 1-81; After thrombin cleavage a residual N-terminal Gly-Ser-His leader remains; 15N-labelled (or 13C/15N) where it is the observed partner in NMR, unlabelled in the reverse titration; also called N-terminal domain I of DnaA; DnaA NTD; not shown: His tag, N-terminal, cleaved
B4: DnaD196, truncated DnaD lacking the C-terminal residues 197–232 (domain or fragment)
chain: MKKQQFIDMQEQGTSTIPNLLLTHYKQLGLNETELILLLKIKMHLEKGSYFPTPNQLQEGMSISVEECTNRLRMFIQKGFLFIEECEDQNGIKFEKYSLQPLWGKLYEYIQLAQNQTQERKAEGEQKSLYTIFEEEFARPLSPLECETLAIWQDQDQHDAQLIKHALKEAVLSGKLSFRYIDRILFEWKKNGLKTV
B5: DnaA(N191C/A198C) (natural protein, Bacillus subtilis, UniProt P05648 1-446, looked up)
chain: MENILDLWNQALAQIEKKLSKPSFETWMKSTKAHSLQGDTLTITAPNEFARDWLESRYLHLIADTIYELTGEELSIKFVIPQNQDVEDFMPKPQVKKAVKEDTSDFPQNMLNPKYTFDTFVIGSGNRFAHAASLAVAEAPAKAYNPLFIYGGVGLGKTHLMHAIGHYVIDHNPSAKVVYLSSEKFTNEFICSIRDNKCVDFRNRYRNVDVLLIDDIQFLAGKEQTQEEFFHTFNTLHEESKQIVISSDRPPKEIPTLEDRLRSRFEWGLITDITPPDLETRIAILRKKAKAEGLDIPNEVMLYIANQIDSNIRELEGALIRVVAYSSLINKDINADLAAEALKDIIPSSKPKVITIKEIQRVVGQQFNIKLEDFKAKKRTKSVAFPRQIAMYLSREMTDSSLPKIGEEFGGRDHTTVIHAHEKISKLLADDEQLQQHVKEIKEQLK
notes: DnaA, Bacillus subtilis, double cysteine mutant N191C/A198C; also called DnaA(N191C/A198C) mutant protein
B6: DnaA(A198C), labelled with Cy3B or Atto647N (natural protein, Bacillus subtilis, UniProt P05648 1-446, looked up)
chain: B5 chain with C191N
modifications: Cy3B-maleimide or Atto647N-maleimide on the single cysteine A198C (mixed 1:1:2 Cy3B-labelled: Atto647N labelled: un-labelled)
notes: DnaA, Bacillus subtilis, single cysteine mutant A198C; Printed once as DnaA^N198C and once as DnaA^A19C in the methods (misprints)

The target in data set [1] is B3. Briefly: NMR titration; 1H-15N HSQC, chemical shift perturbations; unlabelled DnaD DDBH2 (129-232 or 129-196) titrated into 15N-labelled DnaA domain I (100 μM) up to 8:1 excess; 50 mM potassium phosphate pH 7.4, 100 mM NaCl; 25°C; KD averaged over five residues. The following applies: both partners purified.
The target in data set [2] is DnaA(N191C), labelled with Cy3B or Atto647N (Bacillus subtilis) (UniProt P05648).
Data set [3] has as its target T1, DnaD DDBH2 domain (residues 129–232) of Bacillus subtilis DnaD (Bacillus subtilis, UniProt P39787 129-232).
T1 construct: DnaD, Bacillus subtilis, DDBH2 domain, residues 129-232; A residual N-terminal Gly-Ser-His remains after thrombin cleavage; 15N-labelled in the reverse titration; also called C-terminal DDBH2 domain; not shown: His tag, N-terminal, cleaved
T1 sequence (looked up): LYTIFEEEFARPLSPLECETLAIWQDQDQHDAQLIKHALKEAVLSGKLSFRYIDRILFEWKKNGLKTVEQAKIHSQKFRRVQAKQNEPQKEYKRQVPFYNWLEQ
Briefly: NMR titration; reverse titration: unlabelled DnaA domain I titrated into 15N-labelled DnaD DDBH2 (100 μM) up to 8:1 excess; 50 mM potassium phosphate pH 7.4, 100 mM NaCl; 25°C; KD averaged over five residues. The following applies: both partners purified.

The target in data set [4] is T1, DnaD DDBH2 domain (residues 129–232) of …. Briefly: NMR titration; 1H-15N HSQC, chemical shift perturbations; unlabelled DnaD DDBH2 (129-232 or 129-196) titrated into 15N-labelled DnaA domain I (100 μM) up to 8:1 excess; 50 mM potassium phosphate pH 7.4, 100 mM NaCl; 25°C; KD averaged over five residues. The conditions noted are these: both partners purified.
Data set [5] concerns the target DnaA(N191C), labelled with Cy3B or Atto647N (Bacillus subtilis) (UniProt P05648). The source holds these as a separate data set.
Data set [6] deals with the molecule itself. Briefly: cross-linking; BMOE (2 mM) cross-linking of 1.5 μM DnaA(N191C/A198C) with 3 nM 819 bp DNA, 2 mM ATP, 37°C; SDS-PAGE, Coomassie.
Data set [7] concerns the molecule itself. Kind of data set: FRET or BRET; single-molecule FRET, confocal, room temperature; 1.5 μM DnaA (1:1:2 Cy3B-labelled: Atto647N labelled: un-labelled) with 3 nM 819 bp oriC DNA fragment and 2 mM ATP, 37°C 15 min; measured at ∼100 pM DnaA in imaging buffer. For orientation: In BRET a luciferase serves as donor, and the signal depends on an acceptor being close.

Consider B1, for which the binding result in data set [1] was “binds”.
For the molecule B2, the single-molecule FRET of Cy3B/Atto647N-labelled DnaA–DNA filaments: apparent FRET efficiency E* with DnaD (24 μM) added before or after DnaA; E* ∼0.7 without DnaD in data set [2] came to 0.5.
Usually Kd stands for the free concentration of one partner at which half of the binding sites on the other are occupied at equilibrium, for simple one-to-one binding. Regarding B3, the results for the Kd in data set [3] and in data set [4] were 665 ± 251 µM and 768 ± 168 µM, respectively.
Consider B4, for which the single-molecule FRET of labelled DnaA–DNA filaments: apparent FRET efficiency E* with DnaD196 (24 μM); E* ∼0.7 in its absence in data set [5] is 0.5.
As for B5, the binding result in data set [6] is reported as “binds”.
In the case of B6, in data set [7], the binding result is listed as “binds”.
